Test results: patent publication US20100015126A1, “Methods of Binding of Cross-Beta Structures By Chaperones” (priority 2006, published 2010)

Each substance was assayed against T1, recombinant human HSP90beta (Homo sapiens, UniProt P08238) (assay: ELISA: binding of HSP90 to immobilized (misfolded) protein ligands). Conditions: 5 mM DTT in binding buffer.
T1 construct: purchased Dr. S. Rüdiger, Cellular Protein Chemistry, Utrecht University
Experimental: Recombinant human HSP90beta was bought from Dr. S. Rüdiger (Cellular Protein Chemistry, Department of Chemistry, Faculty of Science, Utrecht University). HSP90beta eluted from an anion exchange column was supplied in 35 mM Bis-Tris/25mM Tris, 5 mM DTT, approximately 385 mM NaCl, approximately pH 9.0. The HSP90beta concentration was 5.0 μM (450 μg/ml with a MW of 90.000 Da; extinction coefficient of 53740 l/(mol*cm)). The supplied frozen stock is kept at −80° C. Before use, the stock is quickly thawed almost completely in a 37° C. water bath, and kept at wet ice. Before use, the HSP90beta solution is centrifuged for 5 minutes at 16,000*g at 4° C. During dilution of HSP90beta solution, 5 mM DTT should be incorporated in the dilution buffer, to keep free Cys residues. Thawed HSP90beta was aliquoted and snap frozen in liquid nitrogen before re-storage at −80° C.
Binding of chaperones to immobilized (misfolded) protein ligands was determined using an enzyme linked immuno sorbent assay (ELISA) approach. For this purpose 50 μl/well of potential ligands at indicated concentrations or coat buffer only for control and background measurement purposes, were coated overnight at 4° C. or coated for 1 h at room temperature, with motion, in 50 mM NaHCO3 pH 9.6 (coat buffer). In general, ligands were coated at 5 μg/ml, unless stated otherwise. For example, BiP binding peptides 6BB# and oxLDL were coated at 50 μg/ml. Native haemoglobin (Sigma-Aldrich, H7379), albumin, IgIV Gammagard and ovalbumin controls were prepared from lyophilized stocks. The controls were prepared by dissolving lyophilized proteins at 1 mg/ml in PBS upon resuspending by pipetting, followed by a 30 minutes period at the roller device, at room temperature. The protein solutions were centrifuged for 10 minutes at 16,000*g and diluted in coat buffer. After coating the plates were washed at least three times with 50 mM Tris-HCl pH 7.3, 150 mM NaCl, 0.1% v/v Tween20, and blocked with Blocking reagent (Roche Diagnostics, Almere, The Netherlands; 11112589001), for 1 h at room temperature, with motion. Plates were washed three times and incubated in triplicate with indicated chaperone dilution series, at 50 μl/well, for 1 h at room temperature, with constant motion. For HSP90, 5 mM DTT is incorporated in the binding buffer (PBS/0.1% Tween20) to avoid unwanted disulfide bond formation of the HSP90. Plates were washed three times and incubated with anti-FLAG antibody (mouse antibody, M2, peroxidase conjugate; Sigma, A-8592) for BiP-FLAG-His, anti-His-tag antibody (Mouse Monoclonal Antibody, Cat. No. 70796, Novagen [0.2 mg/ml]) for HSP60, a 1:1 mix of 500-fold diluted anti-HSP90beta antibodies (Stressgen, SPA-643 [mouse monoclonal IgM], SPA-646 [rabbit polyclonal]) for HSP90 and an anti-DnaK antibody (Stressgen, 023SPA-880D [mouse monoclonal antibody]) for DnaK. After four wash cycles, secondary antibodies were added to the wells when required, 50 μl/well, for 45′ at room temperature, with motion. RAMPO and SWARPO were used at 3000 times dilution. […] In a second experiment with more immobilized misfolded proteins and controls, the detection of bound HSP90 with the mix of two anti-HSP90 antibodies was achieved by mixing 1:1500 SWARPO with 1:3000 RAMPO. After 5 washes with wash buffer followed by two washes with PBS, binding of antibodies was assessed. […] Plates were read at 450 nm. Triplicates were averaged and standard deviations calculated. […]

T1 sequence (P08238 whole entry): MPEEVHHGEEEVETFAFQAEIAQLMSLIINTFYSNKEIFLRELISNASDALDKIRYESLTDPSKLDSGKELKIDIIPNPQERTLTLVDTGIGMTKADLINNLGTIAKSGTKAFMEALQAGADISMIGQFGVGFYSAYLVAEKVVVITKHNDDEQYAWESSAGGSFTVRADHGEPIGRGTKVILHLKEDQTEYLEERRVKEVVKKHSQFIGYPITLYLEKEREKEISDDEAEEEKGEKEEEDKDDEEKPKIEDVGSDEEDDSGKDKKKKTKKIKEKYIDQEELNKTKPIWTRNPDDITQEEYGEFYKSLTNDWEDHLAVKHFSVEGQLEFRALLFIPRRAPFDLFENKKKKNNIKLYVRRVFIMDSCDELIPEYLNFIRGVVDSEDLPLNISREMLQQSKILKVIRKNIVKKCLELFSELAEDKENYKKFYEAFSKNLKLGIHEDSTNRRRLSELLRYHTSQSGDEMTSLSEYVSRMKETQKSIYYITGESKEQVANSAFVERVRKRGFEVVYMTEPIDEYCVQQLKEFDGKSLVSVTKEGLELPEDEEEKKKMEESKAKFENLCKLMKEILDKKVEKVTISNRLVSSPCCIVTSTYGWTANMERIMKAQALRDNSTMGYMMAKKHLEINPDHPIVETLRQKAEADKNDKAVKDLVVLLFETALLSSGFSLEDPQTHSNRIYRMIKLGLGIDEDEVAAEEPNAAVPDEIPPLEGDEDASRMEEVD

Substance	Binding of concentration series of HSP90 to coated ligand
AGEYYAAL [6BB7]	little binding
GSNKGAIIGLM [6BB6, Human Aβ (25-35)]	has been established
Hb: non-modified human haemoglobin control	did not bind
HbAGE: human haemoglobin glycated with glucose-6-phosphate for 75 weeks	has been established
KLVFFAE [6BB12, Human Aβ16-22]	did not bind
